In the nanobody polyreactivity screen of Harvey et al. (2022):

Assay: yeast display, Sf9 membrane polyspecificity reagent, FACS + sequencing; frameworks hold sequencing errors
In short: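 Galactose-induced (36–48 hours) yeast carrying a synthetic nanobody display library were exposed to 10% biotinylated, detergent-solubilized Sf9 membrane reagent at 4 °C for 1 hour. FACS followed streptavidin microbead enrichment, using low and high (top ~1%) gates for expression (anti-HA) and reagent binding (streptavidin). Colony PCR, MiSeq 2 × 250 sequencing and CDR-length filtering followed. Labels for polyreactivity reflect the gate of origin.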
With “QVQLVESGGGLVQAGGTLRLICAASGSTFGPYDMGWYRQAPGKERELVADITSGGSTYYADSVKGRFTISRDNAKNTVYLQMISLKPEDTAVYYCAADRVWPYYQYDYWGQGTQVTVSS” the “polyreactivity (PSR sort gate)” value was “low polyreactivity”.
For “QVQLVESGGGLVQAGGTLRLSCAASGFIFAGYAMAWYRHAPGKERELVAASSWDGGSTYFADSVKGRFTISRDNAKHTVYLQMNSLIPEDTAGYYCAAKYFRHGPATYDYWGQGTQVTVSS”, the “polyreactivity (PSR sort gate)” value was “low polyreactivity”.
In the case of “QVQLVESGGGLVQAGGTLRLSCAASGFIFRKYGMGWYRQAPGKERELVAAIRFTGGSTRYADSVKGRFTISRDNAKNTVYLQMNSLKPEDTAVYYCNADRVYVRGRFTYDYWGQGTQVTVSS”, the “polyreactivity (PSR sort gate)” value is reported as “low polyreactivity”.
In the case of “QVQLVESGGGLVQAGGTLRLSCAASGIIFDQNAMGWYRQAPGKERELVAAISWSGGGTYYADSVKGRFTISRDNAKNTVYLQMNSLKPEDTAVSYCAVEDMSHAYVQHYRFGYGYWGQGTQVTVSS”, the “polyreactivity (PSR sort gate)” value is reported as “low polyreactivity”.
In the case of “QVQLVESGGGLVQAGGTLRLSCAASGIIFDTYVMGWYRQAPGKERELVAAITRSGGRTRYADTVKGRFTISRYNAKNTVYLQMNSLKPEDTAVYYCAARIPDRQDGYGYWGQGTQVTVSS”, the “polyreactivity (PSR sort gate)” value is reported as “high polyreactivity”.
For “QVQLVESGGGLVQAGGTLRLSCAASGLTFRYYAMGWYRQAPGKERELVAAITRRGSTYYADSVKGRFTISRDNAKNTVYFQMNSLKPEDTAVYYCATVTGFHSSPLRDLDYWGQGTQVTVSS”, the “polyreactivity (PSR sort gate)” value was “high polyreactivity”.
In the case of “QVQLVESGGGLVQAGGTLRLSCAASGRIFQAYAMGWYRQAPGKERELVASISYRGGITYYADSVKGRFTISRDNAKNTVYLQMNSLKPEDTAVYYCAARSWYFSWEMYYWGQGTQVTVSS”, the “polyreactivity (PSR sort gate)” value is reported as “high polyreactivity”.
For “QVQLVESGGGLVQAGGTLRLSCAASGRIFSKNAMGWYRQAPGKERELVARIRWTGGITYYADSVKGRFTISRDNAKNTVYLQMNSLKPEDTAVYYCAAGSYAGFAVIGYYYWGQGTQVTVSS”, the “polyreactivity (PSR sort gate)” value was “low polyreactivity”.
With “QVQLVESGGGLVQAGGTLRLSCAASGRTFGYNAMGWYRPAPGKERELVAVIRSGGSTYYADSVKGRFTISRDNAKNTVYLQMNSLKPEDTAVYYCAATGLYNVTSPYSYKYDYWGQGTQVTVSS” the “polyreactivity (PSR sort gate)” value was “low polyreactivity”.
In the case of “QVQLVESGGGLVQAGGTLRLSCAASGRTFNAYPMGWYRQAPGKERELVAAITSSGTSTYYADSVKGRFTISRDNAKNTVYLQMNSLKPEDTAVYYCAAPWGYWGQCTQVTVSS”, the “polyreactivity (PSR sort gate)” value is reported as “low polyreactivity”.
In the case of “QVQLVESGGGLVQAGGTLRLSCAASGRTFTIYAMGWYRQAPGKEREWVAAITSGGSSYYADSVKGRFTISRDNATKTDYLQMNSLKPEDTAVEYCARGYAVSLVSRYYYWGQGTQVTVSS”, the “polyreactivity (PSR sort gate)” value is reported as “low polyreactivity”.
In the case of “QVQLVESGGGLVQAGGTLRLSCAASGRTFYGNAMGWYRQAPGKERELVAVITRRGDTTYYADSVKGRFTISRDNAKNTVYLQMNSLKPEDTAVYYCAASYTGGYTPRQKYNRMGYWGQGTQVSVSS”, the “polyreactivity (PSR sort gate)” value is reported as “high polyreactivity”.
For “QVQLVESGGGLVQAGGTLRLSCAASGSIFRLNAMGWYRQPPGKERELVAAITSGGRTNYADSVKGRFTISRDNAKNTDYLQMNSLKPEDTAVYYCNARATAYGWRGDAGFEFDYWGQGTQVTVSS”, the “polyreactivity (PSR sort gate)” value was “low polyreactivity”.
For “QVQLVESGGGLVQAGGTLRLSCAASGSIFRYYAMGWYRQAPGKERELVATITSTGGSTYYADSVKGRFTISRDNAKNTVYLQMNSLKPEDTAVYYCAARNKWYVTVRGYYLSGFWGQGTQVTVSS”, the “polyreactivity (PSR sort gate)” value was “high polyreactivity”.
For “QVQLVESGGGLVQAGGTLRLSCAASGSIFYPNAMGWYRQAPGKERELVAASSWTGGSTRYADSVKGRFTISRDIAKNTVYLQMNSLKPEDTAVYYCAALYVYRPRTPYGYSGQGTQVTVSS”, the “polyreactivity (PSR sort gate)” value was “high polyreactivity”.
With “QVQLVESGGGLVQAGGTLRLSCAASGSIQYRYAMGWYRQAHGKERELVAAISARGGNTYYADSVKGRFTISRDNAKNTVYVQMNSLKPEDTAVYYCAATYRGYRLHVAYDYWGQGTQVTVSS” the “polyreactivity (PSR sort gate)” value was “high polyreactivity”.
In the case of “QVQLVESGGGLVQAGGTLRLSCAASGSTFDVYAMGWYRQSPVKESELVADINYGDASTYYADSVKGRFTISRDNAKNTVYLQMISLNPEDTSVYYCAAFVYVLNYLSDGGSVYREHDYWGQGTKVTVSS”, the “polyreactivity (PSR sort gate)” value is reported as “low polyreactivity”.
